Test results taken from publication PMC7058014.

These sequences were tested against T1, GST-ATML1(30-134) (Arabidopsis thaliana) (UniProt Q8RWU4) (assay: EMSA). Settings: 15 mM Tris pH 7.5, 50 mM NaCl, 0.1 mM DTT, 5% glycerol, 0.1 mM MgCl2, 50 ng/ul carrier DNA, room temperature 30 min; 6% gel in 0.5x TBE at 4 C.
T1 sequence: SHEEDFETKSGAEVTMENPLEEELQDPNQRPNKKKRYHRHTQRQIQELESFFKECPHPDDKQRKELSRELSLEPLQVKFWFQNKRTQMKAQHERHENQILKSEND

binding, binds:
CCTGATAATTTGATATCATCGGTTGTAAAAACGAATATGTAATGTTACATTACTAATGTATAAAGTATAAACAAATATTATTATCTTTTGAAAAAAGTTTTTCATAGAAACAATTCAAATTTAATAAACCAACCTCCTTTTTGGTATGGGGTTGTTGGTCTAATTTAATGCTTGTCTCTTGCTTGCCTCTCTTCTTCAACCATCTTCGTATTTATATCTTCTTCTTCACTATGCATACTCATAAACTTTGCTACTGGCCGCAT (double strand) [MIR171B-F4]
ATGTTGATTACCCATATACTTTGCTAGCGGCCGAAATGATCACTTTCATGATTTTTTTTTGCATAGGTTCATAAAACATATATTTACTTTTTTTTAAGGAAATATTAAATAAATGATAGGAACTTAACAAGAGAAGAAATAAATAGGGAGGGAGAATATTTGGAAAGTTGAGCCATATTAATTTCGAAATTCAAATGTATATTGGGAGTGGCACAACCCCACCAACATGCCTTGCTCTCTCTTACAAACCTCATAAATACTAAATTGAAAGCTCGTGGGA (double strand) [MIR171B-F3]
ATGTGAATGAAGCCAAGAATCAGTTAATACTAAAGCTCAAGTGTGCAATATACATCACAATACCTTTGTCCTTGTTTCAGGTCTACTTTTACATCATAGAACTTGCTCCTATAGATAATACAATGCATGGTATTGACGTAAGAACTCTTAGCTTTTCATATTAGTAGCTTATAATGTTCCTTAAATGCGACATTGATATTAAGCTACTACTCAATAACTCAATGGTAACGAATCATAAGTCTGAACTATTCGAAAACAGTAATCCTGAAAAGAAA (double strand) [MIR171A-F1]
GGGTTCATAACTTGCTTGAGGTTTTGTAAAAAGCAGAGAAAGAGAGAGAGAGGGGCCTAGAAAGAAAGAAAGAAAAGCAGTAAGAGACTATTAAATGTTGCAGGCAGGTCCAGCCAGTGTCCCCTCTCTTCTGCGAGATTCCCTCAAAATTTATTACAAAGCATCTTCATCGATGTTCTTTTAATTCTTCCTCAAAATCTTTTCTCTTTTTTTGGTTATATATATTTGAATTTTGATTTATGAACCTCCTCAAGAAGGAAA (double strand) [MIR171A-F2]
CCTCCTCAAGAAGGAAAGACAGAGGAGGAGACAAAGAAGTATAGGTTCACATTGCATAGCCAGTTTAGTTTTGAAGGATGGATATATGAAAAAAATATGAAGAGAGAGAAGAGAGAAGAAGAGGAGGATTAAAGAGGGTGAGGCCAGCTTTTGTGCTTTGGTAGTAGATGAGGTTTAAATGCTCCATACCTTCCATTTCCTTCTCTCTTACCCTAATTTAATTCTTCCTCTCCTTTATAACTCCCCACAGACATTCTCACT (double strand) [MIR171A-F3]
